Source: patent US5576294A, “Human Kunitz-type protease inhibitor variant” (Novo Nordisk A/S, priority 1992, dated 1996)
Like-named read-outs stand apart in the source and are kept apart here.

Tests used:
[1] = biological target: T1, Human neutrophil elastase (Homo sapiens, UniProt P08246); assay: Inhibition of serine proteinases: neutrophil elastase; format: biochemical; conditions: Example 9; for Ki: enzyme 4 nM, substrate M4765, 30 min incubation, read-out: Apparent Ki (nM), N. elastase
T1 construct: Human neutrophil elastase and cathepsin G was purified from extracts of PMNs; from tissue; host or cells: extracts of human polymorphonuclear leukocytes (PMNs), method of Baugh and Travis
T1 sequence (P08246 30-267): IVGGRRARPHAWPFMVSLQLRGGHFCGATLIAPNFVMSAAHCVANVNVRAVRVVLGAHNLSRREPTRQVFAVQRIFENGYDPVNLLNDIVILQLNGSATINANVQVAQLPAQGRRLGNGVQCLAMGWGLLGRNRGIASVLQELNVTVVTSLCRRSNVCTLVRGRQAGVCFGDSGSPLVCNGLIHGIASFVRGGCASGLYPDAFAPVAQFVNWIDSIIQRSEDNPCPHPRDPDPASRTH
Protocol: (§1) KFN 1593 was purified from yeast culture medium as described in example 1. The concentration of KFN 1593 was determined using 1% E280 nm =8.3 and Mw =6500. Porcine trypsin was from Novo Nordisk (Bagsv.ae butted.rd, Denmark), bovine chymotrypsin (TLCK treated) and porcine pancreatic kallikrein was from Sigma Chemical Co (St. Louis, Mo., U.S.A.), human plasmin and human plasma kallikrein was from Kabi (Stockholm, Sweden).
(§2) Human neutrophil elastase and cathepsin G was purified from extracts of PMNs according to the method described by Baugh and Travis (Biochemistry 15 (1976) 836-843). Peptidyl nitroanilide substrates, S2251, S2586, S2266, S2302 were from Kabi (Stockholm, Sweden). M4765 and S7388 was from Sigma Chemical Co (St. Louis, Mo., U.S.A.) and FXa-1 was from NycoMed (Oslo, Norway).
Serine proteinases were incubated with various concentrations of KFN 1593 for 30 min. Substrate was then added and residual proteinase activity was measured at 405 nm. […]
(§3) The four variants were purified from yeast culture medium. Their concentrations were determined from the absorbance at 214 nm using BTPI as a standard. Porcine trypsin was obtained from Novo Nordisk A/S (Bagsvaerd, Denmark, bovine chymotrypsin (TLCK treated) was obtained from Sigma Chemical Co. (St. Louis, Mo., U.S.A.). Truncated human recombinant tissue factor was obtained from Corvas (San Diego, Calif., U.S.A.). Human plasmin was from Kabi (Stockholm, Sweden). Human neutrophil cathepsin G and elastase were purified from extracts of PMNs according to the method described by Baugh and Travis (Biochemistry 15 (1976) 836-843).
(§4) Peptidyl nitroanilide substrates, S2251, S2586 were from Kabi (Stockholm, Sweden). S7388 and M4765 were from Sigma Chemical Co. (St. Louis, Mo., U.S.A.).
(§5) Serine proteinases were incubated with various concentrations of the variants for 30 min. Substrate ([…]) was then added and residual proteinase activity was measured at 405 nm.

[2] = biological target: T2, Human plasmin (Homo sapiens, UniProt P00747); assay: Inhibition of serine proteinases: plasmin; format: biochemical; set-up: human plasmin and human plasma kallikrein was from Kabi (Stockholm, Sweden); purchased Kabi (Stockholm, Sweden); conditions: enzyme 4 nM, 30 min incubation, read-out: Apparent Ki (nM), Plasmin
Protocol: as §1, §2
(§6) Serine proteinases were incubated with various concentrations of KFN 1593 for 30 min. Substrate was then added and residual proteinase activity was measured at 405 nm.
(§7) The three TFPI (domain II) variants were purified from yeast culture medium. Their concentrations were determined from the absorbance at 214 nm using BPTI as a standard. The final concentration was determined by titration with trypsin. Porcine trypsin and human recombinant proteins, factor VIIa, activated protein C (ACP), and tPA were obtained from Novo Nordisk A/S (Bagsvaerd, Denmark), so was human thrombin. Bovine chymotrypsin and glandular kallikrein were obtained from Sigma Chemical Co. (St. Louis, Mo., U.S.A.). Truncated human recombinant tissue factor was obtained from Corvas (San Diego, Calif., U.S.A.). Human neutrophil cathepsin G was purified from extracts of PMNs according to the method described by Baugh and Travis (Biochemistry 15 (1976) 836-843). Human plasmin was from Kabi (Stockholm, Sweden), uPA was from Serono (Milan, Italy), human factor Xa was a gift from Dr. W. Kisiel (Albuquerque, N.M., U.S.A.), and human plasma kallikrein was a gift from Dr. I Schousboe (Copenhagen, Denmark).
(§8) Peptidyl nitroanilide substrates, S2251, S2302, S2266, S2586, S2288, S2444, S2366, and S2238 were from Kabi (Stockholm, Sweden). S7388 and M4765 were from Sigma Chemical Co. (St. Louis, Mo., U.S.A.) and FXa-1 was from Nycomed (Oslo, Norway).
(§9) Serine proteinases were incubated with various concentrations of Kunitz Domain variant for 30 min. Substrate (0.6 mM) was then added and residual proteinase activity was measured at 405 nm.
as §3, §4, §5
Target sequence in this assay (P00747 581-810 limits assumed): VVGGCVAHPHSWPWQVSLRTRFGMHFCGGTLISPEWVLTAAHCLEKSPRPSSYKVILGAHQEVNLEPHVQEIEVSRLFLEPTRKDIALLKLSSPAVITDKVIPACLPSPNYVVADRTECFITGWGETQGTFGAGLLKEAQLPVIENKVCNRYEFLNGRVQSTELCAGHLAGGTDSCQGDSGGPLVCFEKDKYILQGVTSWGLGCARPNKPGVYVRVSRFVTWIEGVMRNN
Target sequence in this assay (P00747 97-580 limits assumed): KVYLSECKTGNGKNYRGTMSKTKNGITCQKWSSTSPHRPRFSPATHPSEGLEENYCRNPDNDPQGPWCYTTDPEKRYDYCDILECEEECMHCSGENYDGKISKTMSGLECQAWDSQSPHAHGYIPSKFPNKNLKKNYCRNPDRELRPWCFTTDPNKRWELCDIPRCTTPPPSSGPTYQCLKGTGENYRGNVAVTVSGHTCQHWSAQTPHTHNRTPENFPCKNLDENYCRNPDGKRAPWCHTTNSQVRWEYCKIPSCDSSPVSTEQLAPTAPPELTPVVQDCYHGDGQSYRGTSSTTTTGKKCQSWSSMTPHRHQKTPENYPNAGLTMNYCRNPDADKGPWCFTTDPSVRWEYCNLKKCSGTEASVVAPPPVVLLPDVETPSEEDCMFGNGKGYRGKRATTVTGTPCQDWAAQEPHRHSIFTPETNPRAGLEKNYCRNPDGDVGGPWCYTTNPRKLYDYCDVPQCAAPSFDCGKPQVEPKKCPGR

[3] = biological target: T3, Porcine trypsin (Sus scrofa, UniProt P00761); assay: Inhibition of serine proteinases: trypsin, peptidyl nitroanilide substrate, residual activity at 405 nm; format: biochemical; conditions: enzyme 10 nM, read-out: Apparent Ki (nM), Trypsin
T3 construct: purchased Novo Nordisk (Bagsvaerd, Denmark; the applicant itself)
Protocol: as §1, §2, §6, §7, §8, §9, §3, §4, §5

[4] = biological target: T4, Human neutrophil cathepsin G (Homo sapiens, UniProt P08311); assay: Inhibition of serine proteinases: neutrophil cathepsin G; format: biochemical; conditions: Example 9; enzyme 50 nM, substrate S7388, 30 min incubation; read-out: Apparent Ki (nM), N. cathepsin G
T4 construct: Human neutrophil cathepsin G was purified from extracts of PMNs; from tissue; host or cells: extracts of human polymorphonuclear leukocytes (PMNs), method of Baugh and Travis
T4 sequence (P08311 21-255): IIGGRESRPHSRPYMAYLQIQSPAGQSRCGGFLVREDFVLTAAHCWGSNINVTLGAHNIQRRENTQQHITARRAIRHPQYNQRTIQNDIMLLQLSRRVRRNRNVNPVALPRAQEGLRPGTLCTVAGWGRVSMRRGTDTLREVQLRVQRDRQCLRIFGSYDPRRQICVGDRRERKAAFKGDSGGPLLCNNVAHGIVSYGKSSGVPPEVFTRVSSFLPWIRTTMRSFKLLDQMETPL
Protocol: as §1, §2, §6, §7, §8, §9, §3, §4, §5

[5] = biological target: T5, Bovine chymotrypsin (Bos taurus, UniProt P00766); assay: Inhibition of serine proteinases: chymotrypsin; format: biochemical; conditions: enzyme 2.5 nM, substrate S2586 0.6 mM, 30 min incubation
T5 construct: purchased Sigma Chemical Co. (St. Louis, Mo., U.S.A.)
Protocol: as §7, §8, §9, §3, §4, §5

[6] = biological target: T6, glandular kallikrein (porcine pancreatic kallikrein) (Sus scrofa, UniProt P00752); assay: Inhibition of serine proteinases: glandular kallikrein; format: biochemical; conditions: Example 8; enzyme 1 U/ml, substrate S2266 0.6 mM, 30 min incubation; read-out: Apparent Ki (nM), Gl. kallikrein
T6 construct: purchased Sigma Chemical Co (St. Louis, Mo., U.S.A.)
Protocol: as §1, §2, §6, §7, §8, §9

[7] = biological target: T7, plasma kallikrein (Homo sapiens, UniProt P03952); assay: Inhibition of serine proteinases: plasma kallikrein; format: biochemical; conditions: Example 8; enzyme 3 nM, substrate S2302 0.6 mM, 30 min incubation; read-out: Apparent Ki (nM), Pl. kallikrein
Protocol: as §1, §2, §6, §7, §8, §9
Target sequence in this assay (P03952 391-638 limits assumed): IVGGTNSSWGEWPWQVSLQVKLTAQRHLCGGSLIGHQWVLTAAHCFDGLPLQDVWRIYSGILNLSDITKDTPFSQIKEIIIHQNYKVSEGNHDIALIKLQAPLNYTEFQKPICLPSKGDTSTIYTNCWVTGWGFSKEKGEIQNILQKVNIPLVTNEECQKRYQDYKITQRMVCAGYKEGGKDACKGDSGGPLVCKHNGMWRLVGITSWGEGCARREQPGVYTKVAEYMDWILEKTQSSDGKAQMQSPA
Target sequence in this assay (P03952 20-390 limits assumed): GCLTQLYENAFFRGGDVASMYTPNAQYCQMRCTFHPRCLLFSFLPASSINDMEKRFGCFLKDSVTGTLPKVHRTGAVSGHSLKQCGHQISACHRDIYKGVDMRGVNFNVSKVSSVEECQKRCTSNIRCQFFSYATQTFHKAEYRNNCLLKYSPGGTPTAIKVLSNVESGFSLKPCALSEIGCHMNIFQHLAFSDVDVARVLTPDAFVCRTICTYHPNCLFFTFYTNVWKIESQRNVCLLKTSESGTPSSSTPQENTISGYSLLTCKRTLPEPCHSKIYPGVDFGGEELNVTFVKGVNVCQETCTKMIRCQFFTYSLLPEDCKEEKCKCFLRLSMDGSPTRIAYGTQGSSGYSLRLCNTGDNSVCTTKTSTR

[8] = biological target: T7, plasma kallikrein; assay: apparent Ki; 3 nM plasma kallikrein, substrate S2302, 30 min preincubation, residual activity at 405 nm
[9] = biological target: T7, plasma kallikrein
[10] = biological target: bovine chymotrypsin (TLCK treated) (bovine) (UniProt P00766)
[11] = biological target: Porcine trypsin (porcine) (UniProt P00761)
[12] = biological target: T2, Human plasmin
[13] = biological target: glandular kallikrein (as used in Example 8) (Sus scrofa (Pig)) (UniProt P00752)
[14] = biological target: bovine chymotrypsin (TLCK treated) (bovine) (UniProt P00766); assay: apparent Ki; 2.5 nM chymotrypsin, substrate S2586, 30 min preincubation, residual activity at 405 nm
[15] = biological target: Porcine trypsin (porcine) (UniProt P00761); assay: apparent Ki; 10 nM trypsin, substrate S2251, 30 min preincubation, residual activity at 405 nm
[16] = biological target: T2, Human plasmin; assay: apparent Ki; 4 nM plasmin, substrate S2251, 30 min preincubation, residual activity at 405 nm
[17] = biological target: glandular kallikrein (as used in Example 8) (Sus scrofa (Pig)) (UniProt P00752); assay: apparent Ki; 1 U/ml glandular kallikrein, substrate S2266, 30 min preincubation, residual activity at 405 nm
[18] = biological target: Human neutrophil elastase (human) (UniProt P08246)
[19] = biological target: Human neutrophil elastase (human) (UniProt P08246); assay: apparent Ki; 4 nM neutrophil elastase, substrate M4765, 30 min preincubation, residual activity at 405 nm
[20] = biological target: bovine chymotrypsin (TLCK treated) (bovine) (UniProt P00766); remark: listed apart in the source
[21] = Example 9, substrate S2251, 30 min incubation
[22] = Example 9, read-out: Apparent Ki (nM), Chymotrypsin
[23] = Example 8, substrate S2251 0.6 mM
[24] = Example 8, substrate S2251 0.6 mM, 30 min incubation
[25] = Example 8, read-out: Apparent Ki (nM), chymotrypsin

T6 sequence (P00752 8-246): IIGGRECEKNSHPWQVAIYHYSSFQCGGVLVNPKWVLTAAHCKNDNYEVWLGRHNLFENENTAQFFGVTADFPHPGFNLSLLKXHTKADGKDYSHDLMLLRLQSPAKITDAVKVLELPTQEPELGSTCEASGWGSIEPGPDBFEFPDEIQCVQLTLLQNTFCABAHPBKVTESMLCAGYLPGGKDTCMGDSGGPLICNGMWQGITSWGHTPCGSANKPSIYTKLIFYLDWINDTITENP
T3 sequence (P00761 9-231): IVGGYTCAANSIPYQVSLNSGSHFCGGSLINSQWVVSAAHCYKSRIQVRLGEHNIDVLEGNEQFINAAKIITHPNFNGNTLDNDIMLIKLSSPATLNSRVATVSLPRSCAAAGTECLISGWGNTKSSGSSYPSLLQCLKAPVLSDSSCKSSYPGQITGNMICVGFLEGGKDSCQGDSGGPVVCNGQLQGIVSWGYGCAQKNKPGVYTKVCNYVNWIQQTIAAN

[R15V, G16A]-TFPI-2 [KFN 1897]
neutrophil elastase inhibition (in words) [1]: strong inhibitors | Ki [1]: 0.46 nM | Ki ([2]; Example 9): > 1000 nM | Ki [3, 21]: > 1000 nM | Ki [4]: > 1000 nM | Ki [5, 22]: > 100 nM

[R15K, G16A, Y17R, T19I, L39R]-TFPI-2 [KFN 1867]
Ki [2, 23]: 3 nM | Ki [6]: > 100 nM | Ki [3, 24]: < 1 nM | Ki [7]: > 100 nM | Ki [5, 25]: 20 nM

[R15K, G16A, Y17R, T19I]-TFPI-2 from yeast strain KFN-1811 (from UniProt P10646)
Ki [8]: > 100 nM | apparent Ki [9]: > 100 nM | apparent Ki [10]: 10 nM | apparent Ki [11]: < 1 nM | apparent Ki [12]: 3 nM | apparent Ki [13]: > 100 nM | Ki [14]: 10 nM | Ki [15]: < 1 nM | Ki [16]: 3 nM | Ki [17]: > 100 nM

[R15V]-TFPI-2 [KFN 1898]
neutrophil elastase inhibition (in words) [1]: strong inhibitors | Ki [1]: 0.35 nM | Ki ([2]; Example 9): > 1000 nM | Ki [3, 21]: > 1000 nM | Ki [4]: > 1000 nM | Ki [5, 22]: > 100 nM

[R15K, G16A, Y17R, T19I, L39R]-TFPI-2 from yeast strain KFN-1867 (from UniProt P10646)
Ki [8]: > 100 nM | apparent Ki [9]: > 100 nM | apparent Ki [10]: 20 nM | apparent Ki [11]: < 1 nM | apparent Ki [12]: 3 nM | apparent Ki [13]: > 100 nM | Ki [14]: 20 nM | Ki [15]: < 1 nM | Ki [16]: 3 nM | Ki [17]: > 100 nM

[R15K, G16A, Y17R, T19I, L39R, E46K]-TFPI-2 [KFN 1868]
Ki [2, 23]: 3 nM | Ki [6]: > 100 nM | Ki [3, 24]: < 1 nM | Ki [7]: > 100 nM | Ki [5, 25]: 20 nM

[R15K, G16A, Y17R, T19I, L39R, E46K]-TFPI-2 from yeast strain KFN-1868 (from UniProt P10646)
Ki [8]: > 100 nM | apparent Ki [9]: > 100 nM | apparent Ki [10]: 20 nM | apparent Ki [11]: < 1 nM | apparent Ki [12]: 3 nM | apparent Ki [13]: > 100 nM | Ki [14]: 20 nM | Ki [15]: < 1 nM | Ki [16]: 3 nM | Ki [17]: > 100 nM

[R15V]-TFPI-2 from yeast strain KFN-1898 (from UniProt P10646)
apparent Ki [18]: 0.35 nM | Ki [19]: 0.35 nM

[R15L, G16A]-TFPI-2 [KFN 1893]
neutrophil elastase inhibition (in words) [1]: strong inhibitors | Ki [1]: 0.23 nM | Ki ([2]; Example 9): > 1000 nM | Ki [3, 21]: > 1000 nM | Ki [4]: > 1000 nM | Ki [5, 22]: < 5 nM

[R15V, G16A]-TFPI-2 from yeast strain KFN-1897 (from UniProt P10646)
apparent Ki [18]: 0.46 nM | Ki [19]: 0.46 nM

[R15L, G16A]-TFPI-2 from yeast strain KFN-1893 (from UniProt P10646)
Ki [14]: < 5 nM | apparent Ki [18]: 0.23 nM | apparent Ki [20]: < 5 nM | Ki [19]: 0.23 nM

[R15K, G16A, Y17R, T19I]-TFPI-2 [KFN 1811]
Ki [2, 23]: 3 nM | Ki [6]: > 100 nM | Ki [3, 24]: < 1 nM | Ki [7]: > 100 nM | Ki [5, 25]: 10 nM

[R15L]-TFPI-2 [KFN 1928]
neutrophil elastase inhibition (in words) [1]: strong inhibitors | Ki [1]: 2.2 nM | Ki ([2]; Example 9): > 1000 nM | Ki [3, 21]: > 1000 nM | Ki [4]: > 1000 nM | Ki [5, 22]: < 5 nM
